Reference: US12129308B2, “MMP13 binding immunoglobulins” (Merck Patent GmbH, priority 2017, dated 2024)
Substitutions are numbered along the chain they refer to. Numbers in names are those of the source.

B1: 40E09: anti-MMP13 Nanobody, profile 1, SEQ ID NO: 1 (protein)
VHH: EVQLVESGGGSVQAGGSLRLSCAASGSTFSRYSMNWYRQAPGKQREFVAGISVGRITNYAVSVRGRFTISRDNAEGTGYLQMNSLKPEDTAVYYCNAGGLQGYWGLGTQVTVSS
B2: 80A01: anti-MMP13 Nanobody, profile 2, SEQ ID NO: 12 (protein)
VHH: EVQLVESGGGLVQPGGSLRLSCAASGFTLAYYSIGWFRQAPGKEREGVSCISSGIDGSTYYADSVKGRFTISRDNAKNTMYLQMNNLKPEDTGVYYCAADPSHYYSEYDCGYYGMDYWGKGTLVTVSS
B3: 517A01: anti-MMP13 Nanobody, profile 2, SEQ ID NO: 10; C010100087 is the parental of Table 6.7.1D (protein)
VHH: DVQLVESGGGLVQPGGSLRLSCAASGRTFSSYAMGWFRQAPGKEREFVAAISWSGGSTYYADSVKGRFTISRDNSKNTVYLQMNSLRPEDTAVYYCTAALAVYGPNRYRYGPVGEYNYWGQGTLVTVSS
B4: 529C12: anti-MMP13 Nanobody, profile 2, SEQ ID NO: 9 (protein)
VHH: DVQLVESGGGLVQPGGSLRLSCVASGSIFSINAMGWYRQAPGKQRELVAAISSGGSTYYADSVKGRFTISRDNSKNTVYLQMNSLRPEDTAVYYCNAAVDASRGLPYELYYYWGQGTLVTVSS
B5: 516G08: anti-MMP13 Nanobody, profile 2, SEQ ID NO: 13 (protein)
VHH: DVQLVESGGGLVQPGGSLRLSCAGSGSIFRINVMAWYRQAPGKQRELVAAITSGGTTNYADSVKGRFTISRDNSKNTVYLQMNSLRPEDTAVYYCYADIGWPYVLDYDFWGQGTLVTVSS
B6: 62C02: anti-MMP13 Nanobody, profile 2, SEQ ID NO: 11 (protein)
VHH: EVQLVESGGALVRPGGSLRLSCAASGFAFSAAYMSWVRQAPGRGLEWVSSISDDGSKTYYADSVKGRFTISRDNAKNTVYLQMNNLKPDDTAVYYCNTGYGATTTRPGRYWGQGTQVTVSS
B7: C010100648: C0101517A01 sequence optimization variant, mutations N100bQ, N101Q (protein)
VHH: B3 VHH with N106Q, N117Q
B8: C010100649: C0101517A01 sequence optimization variant, mutations N100bS, N101Q (protein)
VHH: B3 VHH with N106S, N117Q
B9: C010100650: C0101517A01 sequence optimization variant, mutations N100bS, N101V (protein)
VHH: B3 VHH with N106S, N117V
B10: C010100647: C0101517A01 sequence optimization variant, mutations N100bQ, N101V (protein)
VHH: B3 VHH with N106Q, N117V

Legend:
[1] = analytical size exclusion chromatography (aSEC); format: physicochemical; conditions: main peak
Method: Analytical SEC experiments were performed on an Ultimate 3000 machine (Dionex) in combination with a Biosep-SEC-3 (Agilent) column.
The tendency for multimerisation and aggregation of a selected panel of 5 representative anti-MMP13 Nanobodies was investigated by analytical size exclusion chromatography (aSEC).

human full-length MMP13 = human full-length MMP13 (Homo sapiens, UniProt P45452); assay: competition ELISA against biotinylated 40E09 (epitope binning); format: binding; conditions: 0.6 nM biotinylated 40E09
Method: FIG. 3: Competition ELISA with 0.6 nM biotinylated 40E09 against a panel of profile 1 and profile 2 Nanobodies on human full-length MMP13, coated via mouse anti-human MMP13 mAb (R&D Systems #MAB511). MMP13 was activated via incubation with APMA for 90 min at 37° C.
For epitope-binning a panel of monovalent Nanobodies derived from profile 1 and profile 2 were tested in a competition ELISA against the purified Nanobody 40E09 (profile 1).

rat MMP13 = rat MMP13 (Rattus norvegicus, UniProt P23097); assay: adapted (more sensitive) rat fluorogenic peptide assay; format: biochemical; conditions: 0.15 nM MMP13 instead of 1.33 nM
Method: (§1) The setup of human, cynomolgus, rat, dog and bovine MMP13 fluorogenic peptide assays, as well as human MMP1 and MMP14 fluorogenic peptide assays is in brief as follows: activated MMP was incubated with fluorogenic peptide substrate Mca-PLGL-Dpa-AR-NH2 (R&D Systems #ES001) and a ⅕ dilution of periplasmic extract or a dilution series of purified Nanobody/positive control (total volume=20 μl in assay buffer 50 mM Tris pH 7.5, 100 mM NaCl, 10 mM CaCl2, 0.01% Tween20), for 2 h at 37° C.
As best species cross-reactive binder (cf. Example 6.4.2) Nanobody 40E09 was selected as representative of profile 1 Nanobodies. For profile 2, three Nanobodies were selected: 516G08, 62C02 and 517A01. Profile 1 and profile 2 Nanobodies were combined in a bivalent format with a 35GS linker (see Table 6.5; Nb(A)-35GS-Nb(B)). The bivalent Nanobodies were cloned into pAX205, transformed into P. pastoris, expressed and purified according to standard procedures. […] Bivalent constructs were tested in this adapted fluorogenic peptide assay as well as in the human fluorogenic collagen assay.

activated MMP13 [2] = target: T1, activated MMP13 (Homo sapiens, UniProt P45452); assay: human collagenolytic assay (human Collagen II); format: biochemical; conditions: low Collagen concentration conditions
Method: The setup of this assay is in brief as follows: 250 ng/ml immunization grade human Collagen II (Chondrex #20052) was incubated with 5 nM activated MMP13 in 100 μl assay buffer (50 mM Tris-Cl pH 7.5, 100 mM NaCl, 10 mM CaCl2, 0.01% Tween-20). After 1.5 h incubation at 35° C., the reaction was neutralized with EDTA (10 μl of 30 mM stock). […] Remaining intact Collagen was detected via ELISA (reagents provided in Type II Collagen Detection kit (Chondrex #6009)).

MMP13 [3] = target: T2, MMP13 (Homo sapiens, UniProt P45452); assay: human MMP13 fluorogenic peptide assay; format: biochemical
Method: as §1
(§2) The potency/efficacy of the Nanobodies was tested in the fluorogenic peptide assay, set up for different MMP13 orthologues and in the human collagenolytic assay (both assays were also used during screening, see Example 6.3). In addition, a second collagen-based assay (fluorogenic collagen assay) using higher Collagen concentrations in comparison with the collagenolytic assay was established to simulate the high Collagen concentration conditions in cartilage in which the MMP13 inhibitor is expected to be active. In this assay the fluorescence of the intact FITC-labelled Collagen substrate is low due to the reciprocal quenching effect of the fluorophores. Upon cleavage, quenching is lost and fluorescence increases.

[4] = thermal shift assay (TSA); format: physicochemical; conditions: for Tm at pH 7: pH 7, monovalent Nanobodies; for TSA Tm (° C.)@ pH 7: C0101517A01 2nd round sequence optimization variants
Method: TSA was carried out with 5 μl of purified monovalent Nanobodies in essence according to Ericsson et al. (2006 Anals of Biochemistry, 357: 289-298).
The thermal stability of the wildtype anti-MMP13 Nanobodies was investigated in a thermal shift assay (TSA).

SDS-Page = format: physicochemical
activated MMP13 [5] = target: T1, activated MMP13; assay: human fluorogenic collagen assay (DQ Collagen type I); format: biochemical; conditions: Table 6.5
Method: In brief, the setup of this assay is as follows: 100 μg/ml DQ™ Collagen, type I from Bovine skin (fluorescein conjugate; Molecular Probes #D-12060 lot 1149062) was incubated with 10 nM activated MMP13 and a dilution series of purified Nanobody/positive control, for 2 h at 37° C. in 40 μl assay buffer (50 mM Tris-Cl pH 7.5, 100 mM NaCl, 10 mM CaCl2, 0.01% Tween-20).
as §2
In FIG. 1 the dose response curves for inhibition of activated human MMP13 when using high concentrations of bovine Collagen I (fluorogenic Collagen assay) are depicted.

forced oxidation = format: physicochemical; conditions: forced oxidation and temperature stress conditions
Method: Nanobody samples (1 mg/ml) were subjected for four hours at RT and in the dark to 10 mM H2O2 in PBS, in parallel with control samples without H2O2, followed by buffer switch to PBS using Zeba desalting spin columns (0.5 ml) (Thermo Scientific). Stressed and control samples were then analyzed by means of RPC on a Series 1200 or 1290 machine (Agilent Technologies) over a Zorbax 300SB-C3 column (Agilent Technologies) at 70° C. Oxidation of Nanobodies was quantified by determination of % peak area of pre-peaks occurring as a result of oxidative stress, compared to the main protein peak.
(§3) In order to assess potential PTM, forced oxidation and temperature stress was applied on the lead panel.

temperature stress = format: physicochemical; conditions: forced oxidation and temperature stress conditions
Method: Nanobody samples (1-2 mg/ml) were stored in PBS for four weeks at −20° C. (negative control) 25 and 40° C. After this incubation period, Nanobodies were digested with Trypsin or LysC. Peptides of stressed and control samples were then analyzed by means of RPC on a Series 1290 machine (Agilent Technologies) over an Acquity UPLC BEH300-C18 column (Agilent Technologies) at 60° C. coupled to a Q-TOF mass spectrometer (6530 Accurate Mass Q-TOF (Agilent))
as §3

MMP13 [6] = target: T2, MMP13; assay: fluorogenic peptide assay for sequence optimization variants and NNK libraries (species not stated); format: biochemical; conditions: C0101517A01 2nd round sequence optimization variants
Method: as §1
However, the degree of isomerization and oxidation differed at the assessed conditions and were just below or above the applied threshold in each case. Eventually, amino acid residues 54-55, 100d-100e, M100j and 101-102 were identified as the residues responsible for the PTM. […] In order to attempt accommodating the different requirements, […] were constructed in which these residues were mutated, and subsequently screened in the fluorogenic peptide assay to evaluate possible potency losses as well as screened for biophysical properties (Tm).
Eventually, amino acid residues N100b and N101 were identified as residues sensitive to deamidation via temperature stress experiments. However, these residues are located in the CDR3 region, and potentially involved in target binding. Thus, knocking out the deamidation sites could have an impact on binding.

Molecule	relative area [1]	Tm at pH 7 [4]	SDS-Page results (SDS-Page)	TSA Tm (° C.)@ pH 7 [4]	IC50 (MMP13 [6])	other results
B1	100%	68.6 °C	1 band			competition with 40E09 in competition ELISA (human full-length MMP13): compete with 40E09; IC50 (adapted) rat fluorogenic peptide assay (rat MMP13): neutral; efficacy / inhibition in the collagenolytic assay (activated MMP13 [2]): positive; inhibition in the fluorogenic peptide assay (screening) (MMP13 [3]): incomplete inhibition; IC50 human fluorogenic collagen assay (activated MMP13 [5]): partial
B2	95%	68.6 °C				Met-oxidation (forced oxidation): prone; Asp-isomerization (temperature stress): prone to Asp-isomerization
B3	100%	77.8 °C	1 band	78 °C		deamidation (temperature stress): prone to deamidation
B4	100%	82.7 °C	1 band			
B5		65.2 °C				
B6	100%	76.4 °C				
B7				81 °C	2.8 nM	
B8				79 °C	2 nM	
B9				81 °C	2.1 nM	
B10				81 °C	2.1 nM	
